Values quoted from earlier work, collected in patent US7858117B2, “Amphoteric liposomes and their use” (Novosom AG, priority 2002, dated 2010).

Substance: lysozyme
- pI (protein): 11.5

Substance: cholesterol hemisuccinate
- pK value of the carboxyl group (state of the art): approximately 4.5
